From US20210040201A1

How the values were obtained:
[1] = target: Human TIGIT expressed on the surface of cells (human) (UniProt Q495A1); test: flow cytometry competition against 50 nM human CD155-mouse IgG2a Fc on CHOS cells expressing human TIGIT; negative control
[2] = target: Human TIGIT expressed on the surface of cells (human) (UniProt Q495A1); test: cell-based or functional assay
[3] = target: Human TIGIT expressed on the surface of cells (human) (UniProt Q495A1); test: flow cytometry competition against 50 nM human CD155-mouse IgG2a Fc on CHOS cells expressing human TIGIT; negative control (text says IgG4)
[4] = target: Human TIGIT expressed on the surface of cells (human) (UniProt Q495A1); test: flow cytometry, antibody titrated on CHO cells expressing human TIGIT, median fluorescence intensity; fit value of the flat negative-control curve in the table under the graph
[5] = target: Human TIGIT expressed on the surface of cells (human) (UniProt Q495A1); test: flow cytometry competition with 50 nM human CD155-mouse IgG2a Fc on CHOS cells overexpressing human TIGIT; fit value of the flat negative-control curve; the row of the drawn table is headed EC50, the text calls the values IC50

Chain of Human TIGIT expressed on the surface of cells (human) (Q495A1 22-244 limits assumed): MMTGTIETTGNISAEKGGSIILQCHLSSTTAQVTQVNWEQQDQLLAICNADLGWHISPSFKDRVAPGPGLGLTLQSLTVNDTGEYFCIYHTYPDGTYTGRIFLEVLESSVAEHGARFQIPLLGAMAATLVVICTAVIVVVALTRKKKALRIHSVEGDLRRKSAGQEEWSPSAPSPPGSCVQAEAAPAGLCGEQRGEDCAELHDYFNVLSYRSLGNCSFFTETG

Row | Substance | IC50 [1] | EC50, MOA-based assay (luciferase reporter under IL2 promoter) [2] | IC50 [3] | EC50 [4] | IC50 [5]
1 | IgG1 (negative control) (antibody) | 0.039 nM | 273 nM | 1.15 nM | – | –
2 | IgG4 (antibody) | – | – | – | 53200 nM | 1.15 nM
